1 substance from article PMC3289641 can be followed below.

The target of the assay is GST-fused core106 (HCV core, residues 1-106) (hepatitis C virus (genotype not stated)). Description: AlphaScreen or HTRF; GST-core106 and Flag-core106 at 150 nM each; glutathione donor beads and anti-Flag acceptor beads 20 ug/ml; room temperature; protein buffer 100 mM HEPES pH 7.5, 1 mM EDTA, 5 mM DTT, 0.1% CHAPS, 10% glycerol; untagged core106 added as reference inhibitor. Background: Alpha assays give light when donor and acceptor beads are brought close together.

Regarding “HCV core106 (1-106 residues), untagged core106 domain (domain or fragment)”, the percent inhibition of core dimerization came out at 91%.
